Assay: soluble on expression in E. coli; label from the status in PepcDB or PDB records

| Sequence | soluble on expression in E. coli |
| --- | --- |
| ITTKRGEKGKVKINVKAGFDWNTPVKVPEYASGYDWARLANEARLGRYDSPIYTPEELEIIRSGLDTDLYPNIDWRDLMLKSGAPRYYANISFSGGSDNVRYYVSGQYTSEQGRYKTFSSENKYNTNTTYERYNYRANVDMNITKTTVLKVSVGGWLVNRTTPTRSTGDIWEDFAKFTPLSTPRKWSTGQWPRVDGQDTPEYHMTQRGYHTKWESKVETSVKLEQDLKFITPGLKFEGVFAFDTYNENIIKREKKEEVWEAQKYRDENGKLILKRVVNRSPMNQNKEVRGDKRYYFQASLDYNRLFAHAHRVGVFGMVYQEEKTDVNFDSSDLIGSIPRRNLAYSGRFTYAYKDKYLAEFNWGCTGSENFEHGKQFGFFPAVSAGYVISEEAFMKKALPWIDQFKIRASYGEVGNDVLDGRRFPYVSLIDTDDGGSYSFGEFGTNRVQAYRIRTLGTPNLTWEIAKKYDVGVDFSFFNGKISGALDWFLDKRDDIFMQRKHMPLTTGLADQTPMANVGKMKSYGWEGNIGFTQSIGQVNLQLRANFTYQTTDIIDKDEAANELWYKMDKGFQLNQSRGLIALGLFKDQDEIDRSPKQTSNRPILPGDIKYKDVNGDGVINDDDIVPLGYREVPGLQYGVGLSANWRNWNLSVLFQGTGK | not soluble |
| MSLSKEKEVLLNEEIRADEIRCVGDDGKVYGIISSDEALEIANRLGLDLVMIAADAKPPVCKIMDYGKFRYQQEKKQKEAKKKQKVIDIKEIKLSVKIAQNDINYKVKHALEFLEQGKHVRFRVFLKGREMATPEAGVALLEKIWTMIENEANRDKEPNFEGRYVNMLVTPKKAEGHHHHHH | soluble |
| MSLQRGAGQYFAGKRCFVTGAASGIGRATALRLAAQGAELYLTDRDRDGLAQTVCDARALGAQVPEHRVLDVSDYQDVAAFAADIHARHPSMDVVLNIAGVSAWGTVDQLTHDQWSRMVAINLMGPIHVIETLVPPMVAAGRGGHLVNVSSAAGLVGLPWHAAYSASKYGLRGLSEVLRFDLARHGIGVSVVVPGAVKTPLVNTVEIAGVDRDDPRVNRWVERFSGHAVTPEKAADKILAGVTRNRYLVYTSADIRALYAFKRYAWWPYTLVMRRVNVFFTRALRPGEGHHHHHH | soluble |
| MVRHRLPSSTYYTPAGEPEWSREMFGEQSIAVLSGAYRNPIEMARHVAARCGSYQPFFVMDVAAIERRLEALRVMLPRVRPNYAVACNADPVLARVLSNNIDVNFEVSNTAELELVSMNVEPSRAVFCSQLMTRKAIKNAVLAGCSTFVVESEKQVTDVMNASPEAEIILAVCLPYSTGEVPFGCSVDEIEEILDMAHLLGANVTGIYLELGLRATLEDYITSVHDARSIFETADQKFLTLRRVCFGNLSVPTGADGAVNNEFMSFCNSLNNVIDDLFESNIDFSASIGRFLVTNAFTLCTNVIGKRAMDAKFITNDDFDDGVGFVYQTNDGVYGSFGCKQMDIKPLCKPLDVENDSEEQLHFGTILGPTLDGTDVAQRLMKSRQLRVGEWLVWEQMGAFTIPVDSEHSVPPVYYYSGKECWQKLIHKDEQRRSPSPSVSDNEDIGSDGEGGYASSCEDSEAEMALEPLIEDLNEFF | not soluble |
| MKILLEVKYMTKFQVAYVPVGVPTFHLESAQKEFEKSIDLLNTITDAAIVPDKMLLSIQDLTNFLDTIEPSLIILQNITFANAAYASEVLKRFSCPVLLWTLREPVIDGGRLRLNSLTGAYSAGNALAAFRDGNFEYIFGAPQEERTKKTISACIRAAWLKNELKNLRIASVGHTPQGFGFGRAMDADMQKVFGATLESIEVRELIDMAKGYTDDECSEYLDKMTKCTVGLDKTPDNNRKDFARLCKAYKEYVDENNIGALSSRCWPDFFTAFGTPVCGVLAMLNDMGVAASCEADTYGALSMYMGMKLSEQAVFFGDPVSLDESENTITFWHCGTAACSIAREDTGATIGVHPNRKIGPVMDFGCKAADKVTVFRVGQKADGSFRFFVTTGSALDKPKQFCGTSIVVRTDKNSYDIVNQSVKDGWEPHFVVIYGDCSDELKVLGHMLEIEVCEY | not soluble |
| MNWGEGEWNSFFHFFTKEFINMSESFKELFEQSIAGAQFYPGAIITAKVIDIDDDFVTLNAGLKSEGIVAVEEFYDKNGELEVKVGDTVEVALDSVEDGHGETLLSREKAKRQEAWRKLSKCHENNETVTGLISGKVKGGFTVEIGSIRAFLPGSLVDVRPVRDPSYLEGKELEFKVIKMDLKRNNIVVSRRAVVEEESSADRQALLESLHDGQELHGIVKNLTDYGAFIDLGGIDGLLHITDISWKRVKHPSEVLSVGQDVKVKVLSFDSERNRVSLGMKQLGNDPWVDLVERYPIGKRLQGKVTNITDYGCFVEIEEGVEGLVHMSEMDWTNKNVHPSKVVSLGDVVDVMVLEIDEERRRISLGMKQCVGNPWQQFASTHNKGEKVKGKIRSITDFGIFIGLDGDIDGLVHLSDISWTVPGEEAVKQFKKGQELEAVILAIDPERERISLGLKQLEGDSFASFAETYTKGSIVKGTVTAVEPKTVTVALAEDVSGTIRVSELSDERVDDATTIVKVGDEVEAKITNIDRKNRTISLSVKAKDAQDEADAIKKYSRTEAASTTLGDLLKEKMASKEGELEHHHHHH | soluble |
| MPFHIGSGCLPAIISNRRIYRIAWSDTPPEMSSWEKMKEFFCSTHQAEALECIWTICHPPAGTTREDVVSRFELLRTLAYDGWEENIHSGLHGENYFCILDEDSQEILSVTLDDVGNYTVNCQGYSETHHLTMATEPGVERTDITYNLTSDIDAAAYLEELKQNPIINNKIMNPVGQCESLMTPVSNFMNEKGFDNIRYRGIFIWDKPTEEIPTNHFAVVGNKEGKDYVFDVSAHQFENRGMSNLNGPLILSADEWVCKYRMATRRKLIYYTDFSNSSIAANAYDALPRELESESMAGKVFVTSPRWFNTFKKQKYSLIGKM | not soluble |
| MMSGQGKRLMVMAGGTGGHVFPGLAVAHHLMAQGWQVRWLGTADRMEADLVPKHGIEIDFIRISGLRGKGIKALIAAPLRIFNAWRQARAIMKAYKPDVVLGMGGYVSGPGGLAAWSLGIPVVLHEQNGIAGLTNKWLAKIATKVMQAFPGAFPNAEVVGNPVRTDVLALPLPQQRLAGREGPVRVLVVGGSQGARILNQTMPQVAAKLGDSVTIWHQSGKGSQQSVEQAYAEAGQPQHKVTEFIDDMAAAYAWADVVVCRSGALTVSEIAAAGLPALFVPFQHKDRQQYWNALPLEKAGAAKIIEQPQLSVDAVANTLAGWSRETLLTMAERARAASIPDATERVANEVSRVARALEHHHHHH | soluble |
| MGSDKIHHHHHHMSEPLRIIHGAFGRVALLLLDRTMAVHAHRVCHVVFKIGGVDILFGVRELEHYLSDDNVLLVNAWEPHFYNHNRDAPSTVLLALYLEPQWLRKVDTRFSCSAHPKFFSQPILALGSKLAGLRADLLDLLTGRESTGSRVVEDLIVRTIIELACVGTRWKELLECQLMGSLAYDARIRQSLDEMKSRGGVALDFDEIASSVGLSRPHFFHLFRKQIGMTPATFGSMLRMEASIDSLAATDTAIHDIARHLGFDSPGNFTRFFLCQQGVTPSQYRRKVEFTTLTCS | not soluble |
| MSLSVAIIGPGAVGTTIAYELQQSLPHTTLIGRHAKTITYYTVPHAPAQDIVVKGYEDVTNTFDVIIIAVKTHQLDAVIPHLTYLAHEDTLIILAQNGYGQLEHIPFKNVCQAVVYISGQKKGDVVTHFRDYQLRIQDNALTRQFRDLVQDSQIDIVLEANIQQAIWYKLLVNLGINSITALGRQTVAIMHNPEIRILCRQLLLDGCRVAQAEGLNFSEQTVDTIMTIYQGYPDEMGTSMYYDIVHQQPLEVEAIQGFIYRRAREHNLDTPYLDTIYSFLRAYQQNEGHHHHHH | soluble |
| MALSLYEKMLHKGMIIKNSNVYEKIKEIDTIIFDKTGTLTYGTPIVTQFIGDSLSLAYAASVEALSSHPIAKAIVKYAKEQGVKILEVKDFKEISGIGVRGKISDKIIEVKKAENNNDIAVYINGEPIASFNISDVPRPNLKDYLEKLKNEGLKIIILSGDKEDKVKELSKELNIQEYYSNLSPEDKVRIIEKLKQNGNKVLMIGDGVNDAAALALADVSVAMGNGVDISKNVADIILVSNDIGTLLGLIKNRKRLSNAIPSN | soluble |
| MDVTALCHKIFLHIHGLISADRYSLFLVCEDSSKDKFLISRLFDVAEGSTLEEASNNCIRLEWNKGIVGHVAAFGEPLNIKDAYEDPRFNAEVDQITGYKTQSILCMPIKNHREEVVGVAQAINKKSGNGGTFTEKDEKDFAEYLAFCGEVLHNAQLYETSLLENKRNLEHHHHHH | soluble |
| MGSDKIHHHHHHMSFELHPRYLEVHLHGRLCGFLCEAGGNTRFVPTDEYRGDNERYTLSLSITLPTEIGREATSAVFDNAFHPAIYNTGGELPPYFAGLLPEGELRKRLESTRTNPEDKDDFGVLASAGNDLPGAIVVKPADVRALPGYVRTYGVTGGADNLEIAVVEGATEGAASVSGVQNKLALSTMRKGERYTLPTKGKVSDIIAKLPAKNDDSQVFNEYVSMHLAAAAGVNIAPIQVLPMSSIDVPDLADLMGKGLHYLAVERFDRAADGGLLHAEDGCQMLGRMPNRKYAKREEYIRLLAALYRLSPKGFENVRQFFLRQAVNTLIGNSDAHLKNFSVIYRDRKLPELSPAYDIVCVAALPNFTSYGQNVAIDEIQRKETMDLYEDIADKAGIPRRIATAAVKEAVSMAHAHWPGLLEKMGASQALRDVIAERLENLPLAKVGRPTRKGA | not soluble |
| MRINFEKANSNHINIIFSWLKEPFIQEFWDNTQAHKDDILNFINGRTEPSSYADGKYVYWIASGNGHPFAMLMTIQETSEDEIDDIKLINLSKTGHSYGIDYMIGDKNYFGIGYGARTLIEFIDFFIKEVDPKADTFLIDPASDNPRAKHVYIKAGF | soluble |
| MPRPALRSRSLRRVYVKLPSGKTVIHYERKRNDIAICAICKKPLHGVKTNFLHKYSKSEKRPERPFGGYLCSSCLTQLIKATVRQQLQ | soluble |
| MGSDKIHHHHHHMDFELDDGWDVYPIYGNTNKAFMGKKNHQRLFLKRNASPFLAALSMEEITPRLIWTKRISSGDTLTAQEWLNGQTLTKQQMRLPEVAHLLARVHNSELLHRMLRKVGGQSVRPQDFIQQYLQDLPDDLRHHPLMARVLDELRGTAPTLPATDYRVCHGDLNHKNWLLSDRQQLYLVDWDSARFADPASDISMLLCEYVPLSDWQQWLSEYGETMTTALRTRVVWYAKINLLLNIKDNYYRNQYHQMNHEIIFLEELSQYEV | not soluble |
| TATRVRPREYALRYPYMQVNRPGMVSWLVFDLDHANALAWDDAGLPAPNLMVRNRKSGHSQLFYAVPSVCTTENARTKPIQYMKAIYAAFAARLDADVDYHGGPVAKTPGHPWWETTEFHSHVYELGELASAVELTVKPWATGPKLDQVSHSRHCILFEQLRYFAYSIVNRERELGSFESFMRSLDAYAYNHNSFLKQGFSENLPLSSIRATVKSVGRWTWDRYTGDRRCHRGAMQLDGSLSLTERQSLAAKRTNELRH | not soluble |
| MSLSRLPLIGVTACSRQIGLHAYHISGDEYVHAVASAAQGVPVIIPSMAELLSPSDILDGLDGILFTGSPSNIEPFHYQGPASAPGTAHDSARDAATLPLLSAAVASGVPVLGICRGFQEMNVALGGSLHQNVQQVQPFMDHRHAEQPGQPLDAWYAPAHDLHIKAGGVLAGLGLPERIQVNSIHAQGVERLAPGLRVEALAPDGLVEAVSVEASKAFALGVQWHPEWQVSCNPHYLAIFQAFGDACRKRARQRDAEASHKEGHHHHHH | soluble |

Source: the DeepSol protein solubility set
